# Article PMC5647543, “The Two-State Prehensile Tail of the Antibacterial Toxin Colicin N” (Biophysical Journal, 2017)
# T1: ColN_(90–387) (ColN-RP), receptor binding and pore forming domains of colicin N (Escherichia coli, UniProt P08083 90-387)
# T1 construct: In PDB 1A87 the first resolved residue is S91; source: purified as previously described (20, 26); 15N-labelled protein from bacteria grown in M9 minimal medium with 15NH4Cl; not shown: His6 (-SSHHHHHH), C-terminal, kept
# T1 sequence (looked up): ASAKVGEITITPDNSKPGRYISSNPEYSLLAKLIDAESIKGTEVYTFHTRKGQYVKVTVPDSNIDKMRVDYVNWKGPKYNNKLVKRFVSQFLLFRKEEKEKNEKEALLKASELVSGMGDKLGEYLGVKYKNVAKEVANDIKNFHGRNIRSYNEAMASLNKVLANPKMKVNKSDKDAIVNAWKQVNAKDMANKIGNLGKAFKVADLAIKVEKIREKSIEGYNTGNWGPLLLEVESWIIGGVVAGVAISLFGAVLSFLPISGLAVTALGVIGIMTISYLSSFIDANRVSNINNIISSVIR
# B1: ColN_(1–90) (ColN-T), isolated translocation domain of colicin N (domain or fragment)
# chain: MGSNGADNAHNNAFGGGKNPGIGNTSGAGSNGSASSNRGNSNGWSWSNKPHKNDGFHSDGSYHITFHGDNNSKPKPGGNSGNRGNNGDGA
# notes: colicin N (ColN), residues 1-90, the intrinsically disordered translocation (T-) domain; the whole toxin has 387 residues; 98-residue construct: residues 1-90 followed directly by Ser2His6; Used unlabelled in the NMR mixing experiment; also called T-domain; ColN-T(1-90)-SSHHHHHH; source: purified as previously described (20, 26), dialysed into 50 mM sodium phosphate, pH 7.6, 300 mM NaCl; not …
# Target: T1, ColN_(90–387) (ColN-RP), receptor …
# Assay: NMR titration; free unlabelled ColN-T added to 15N-labelled ColN-RP; 15N-1H HSQC chemical shift changes; spectra at 15°C
# Details: both partners purified
binder,measurement,value
B1,binding result,binds
